# Measured values published in US20230133775A1 (University of California, published 2023).
# T1: Leucine-rich repeat-containing protein 15 (LRRC15) on LRRC15-expressing cells (UniProt Q8TF66 22-581, limits assumed)
# T1 construct: whole, on cells; also called leucine-rich repeat containing 15
# T1 sequence (looked up): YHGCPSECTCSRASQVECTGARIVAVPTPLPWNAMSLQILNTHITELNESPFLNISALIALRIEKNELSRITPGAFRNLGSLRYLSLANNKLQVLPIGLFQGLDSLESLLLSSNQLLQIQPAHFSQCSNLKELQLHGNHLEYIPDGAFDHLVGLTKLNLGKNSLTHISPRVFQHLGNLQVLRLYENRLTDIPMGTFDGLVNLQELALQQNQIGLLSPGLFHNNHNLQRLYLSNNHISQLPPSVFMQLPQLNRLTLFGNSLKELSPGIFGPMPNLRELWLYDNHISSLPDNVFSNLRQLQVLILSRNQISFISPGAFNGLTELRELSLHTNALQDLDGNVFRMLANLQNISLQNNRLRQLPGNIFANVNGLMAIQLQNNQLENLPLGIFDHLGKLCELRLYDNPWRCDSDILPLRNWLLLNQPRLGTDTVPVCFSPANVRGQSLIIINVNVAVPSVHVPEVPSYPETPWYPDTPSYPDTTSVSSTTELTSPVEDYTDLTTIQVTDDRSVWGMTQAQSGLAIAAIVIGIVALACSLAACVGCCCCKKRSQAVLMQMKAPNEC
# B1: Lutetium-177 labeled DUNP19 ([177Lu]DUNP19) (antibody, V domains shown)
# VH: QVQLVQSGAEVKKPGASVKVSCKASGYTFTDYYIHWVRQAPGQGLEWMGWINPNSDGTNYAQNFLGRVTMTRDTSISTAYMELSRLRSDDSAVYHCVREGRYSTSPFDYWGQGTLVTVSS
# VL: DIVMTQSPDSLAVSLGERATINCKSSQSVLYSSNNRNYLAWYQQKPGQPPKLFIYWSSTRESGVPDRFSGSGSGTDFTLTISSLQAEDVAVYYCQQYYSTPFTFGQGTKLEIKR
# notes: also called 177Lu-DOTA-DUNP19
# Biological target: T1, Leucine-rich repeat-containing protein …
# Assay: LigandTracer, radiolabeled antibody on live target cells
# Procedure: DUNP 19 was developed by humanization of a hybridoma mAb generated from immunizing mice with stably transfected LRRC15-expressing 3T3 cells. […] Liquid chromatography-mass spectrometry (LC-MS) analysis of DUNP19 incubated with LRRC15-expressing cell lines confirmed molecular binding specificity. […] LigandTracer (Ridgeview Instruments) was utilized to assess binding interaction between live cells and Lutetium-177 labeled DUNP19 ([¹⁷⁷Lu]DUNP19). […] Internalization rate was studied by quantifying emitted fluorescence over time from SAOS2 cells incubated with pH-responsive dye-labeled DUNP19. Identification of colocalization of Alexa-488 labeled DUNP19 with intracellular markers (DAPI and LAMP1) in SAOS2 cells over time was applied to further confirm time of internalization.
binder,measurement,value
B1,Kd,0.329 nM
